What was measured:
Experiment in all cases: cell-based or functional assay
[1] = molecular target: Chymotrypsin having an activity of approx. 40 BTEE units per mg
[2] = molecular target: Chymotrypsin having an activity of approx. 40 BTEE units per mg; conditions: scale: mg ChymoTrypsin inhibited/1 mgP-ChymoTrypsin Inhibitor
[3] = molecular target: Trypsin having an activity of approx. 10,000 BAEE units per mg
[4] = scale: mg ChymoTrypsin inhibited/1 mgP-ChymoTrypsin Inhibitor

Substance: Bowman-Birk inhibitor (BBI) purified from soy flour
- BBI activity of final product, after the change of the filtration process [1]: 0.8 to 1.4 mg⁻¹
- BBI activity of final product, before the change of the filtration process [1]: 0.4 to 0.6 mg⁻¹
- BBI activity, step: Final after lyophilization "as-is" (mg chymotrypsin inhibited per mg solid) [1]: 0.8
- Chymotrypsin inhibitor activity of purified BBI (mg chymotrypsin inhibited per mg) [1]: 1.49
- BBI activity, step: BBI permeate of 30 Kda. [1, 4]: 0.8
- BBI activity, step: BBI pool [1, 4]: 0.5
- BBI activity, step: Permeate of 5 KDa [1, 4]: 0.13
- BBI activity, step: Retentate of 5 KDa after 4.5 x concentration [1, 4]: 0.8
- BBI activity, step: Retentate of 10 Kda after diafiltration [1, 4]: 0.7
- BBI activity, step: Retentate of 30 KDa [1, 4]: 0.13
- BBI activity, final lyophilized product on the basis of dry weight ([1]; scale: mg chymotrypsin inhibited per mg dry weight): 0.9
- BBI Activity, large-scale prep ([1]; scale: not given): 1.49
- BBI Activity, previous procedure ([1]; scale: not given): 1.2
- BBI activity, step: BBI After formulation and microfiltration 0.45/0.2 [2]: 0.8
- BBI activity, step: BBI permeate, after 30 Kda UF and additional washes [2]: 0.8
- BBI activity, step: BBI pool [2]: 0.6
- BBI activity, step: BBI pool after microfiltration 0.45/0.2 [2]: 0.6
- BBI activity, step: Final after lyophilization [2]: 0.9
- BBI activity, step: Retentate of 5 KDa after 5x concentration [2]: 0.9
- BBI activity, step: Retentate of 10 Kda after diafiltration [2]: 1

Substance: SBTI intermediate (crude soybean trypsin inhibitor preparation from soy flour)
- BBI activity, quality control of material loaded on the DEAE column [1]: 0.09 not printed
- Chymotrypsin inhibitor activity of SBTI intermediate (large-scale prep) (mg chymotrypsin inhibited per mg protein) [1]: 0.98
- KTI activity, quality control of material loaded on the DEAE column [3]: 0.97 not printed
- Trypsin inhibitor activity of SBTI intermediate (large-scale prep) (mg trypsin inhibited per mg protein) [3]: 1.34

From patent publication US20190321303A1
